Experimental data reported in article PMC4452782.

How the values were obtained:
[1] = molecular target: GEC1/GABARAPL1 (GL1) (human (endogenous in MDA-MB-436 and MCF-7)) (UniProt Q9H0R8); experiment: proximity ligation; P-LISA (Duolink In Situ Detection Reagents Red) on MDA-MB-436 cells fixed with 4% paraformaldehyde and permeabilised with cold methanol; endogenous proteins; mouse anti-SQSTM1 or anti-NIX with rabbit anti-LC3B or anti-GL1; dots per cell counted with BlobFinder; untreated cells, also after Rapa (10 uM, 5 h), Rot (50 uM, 24 h) or CCCP (100 uM, 24 h)
GEC1/GABARAPL1 (GL1) (human (endogenous in MDA-MB-436 and MCF-7)), sequence (Q9H0R8 whole entry): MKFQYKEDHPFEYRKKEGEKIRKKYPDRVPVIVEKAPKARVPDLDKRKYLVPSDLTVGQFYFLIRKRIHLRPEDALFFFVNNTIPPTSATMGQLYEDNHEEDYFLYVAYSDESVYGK

[2] = molecular target: LC3B (human (endogenous in MDA-MB-436)) (UniProt Q9GZQ8); experiment: as above

NIX/BNIP3L, O60238 1-219 (natural protein; other documents disagree on this pair), sequence (O60238 whole entry): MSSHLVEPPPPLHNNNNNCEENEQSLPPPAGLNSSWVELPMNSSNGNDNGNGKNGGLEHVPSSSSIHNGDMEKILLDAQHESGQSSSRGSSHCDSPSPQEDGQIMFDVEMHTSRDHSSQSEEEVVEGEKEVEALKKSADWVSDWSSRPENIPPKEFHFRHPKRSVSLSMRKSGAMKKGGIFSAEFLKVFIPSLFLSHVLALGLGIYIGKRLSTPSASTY

P-LISA dots per cell [1]: 11.6 dots/cell | P-LISA dots per cell [2]: 18.9 dots/cell
Substance: NIX/BNIP3L, O60238 1-219 (natural protein; other documents disagree on this pair)
